# Laboratory results taken from paper PMC4331651, “The use of SMALPs as a novel membrane protein scaffold for structure study by negative stain electron microscopy” (Biochimica et Biophysica Acta, 2015).
# What was measured:
# [1] = target: T1, AcrB (Escherichia coli, UniProt P31224); assay: fluorescence polarization titration of R6G with AcrB SMALP; assay type: binding
# T1 construct: full-length AcrB with C-terminal octahistidine tag (kept); expressed in E. coli, extracted with styrene maleic acid co-polymer into SMALPs, cobalt resin purified; 110 kDa band; homotrimer (~360 kDa)
# T1 sequence (P31224 whole entry): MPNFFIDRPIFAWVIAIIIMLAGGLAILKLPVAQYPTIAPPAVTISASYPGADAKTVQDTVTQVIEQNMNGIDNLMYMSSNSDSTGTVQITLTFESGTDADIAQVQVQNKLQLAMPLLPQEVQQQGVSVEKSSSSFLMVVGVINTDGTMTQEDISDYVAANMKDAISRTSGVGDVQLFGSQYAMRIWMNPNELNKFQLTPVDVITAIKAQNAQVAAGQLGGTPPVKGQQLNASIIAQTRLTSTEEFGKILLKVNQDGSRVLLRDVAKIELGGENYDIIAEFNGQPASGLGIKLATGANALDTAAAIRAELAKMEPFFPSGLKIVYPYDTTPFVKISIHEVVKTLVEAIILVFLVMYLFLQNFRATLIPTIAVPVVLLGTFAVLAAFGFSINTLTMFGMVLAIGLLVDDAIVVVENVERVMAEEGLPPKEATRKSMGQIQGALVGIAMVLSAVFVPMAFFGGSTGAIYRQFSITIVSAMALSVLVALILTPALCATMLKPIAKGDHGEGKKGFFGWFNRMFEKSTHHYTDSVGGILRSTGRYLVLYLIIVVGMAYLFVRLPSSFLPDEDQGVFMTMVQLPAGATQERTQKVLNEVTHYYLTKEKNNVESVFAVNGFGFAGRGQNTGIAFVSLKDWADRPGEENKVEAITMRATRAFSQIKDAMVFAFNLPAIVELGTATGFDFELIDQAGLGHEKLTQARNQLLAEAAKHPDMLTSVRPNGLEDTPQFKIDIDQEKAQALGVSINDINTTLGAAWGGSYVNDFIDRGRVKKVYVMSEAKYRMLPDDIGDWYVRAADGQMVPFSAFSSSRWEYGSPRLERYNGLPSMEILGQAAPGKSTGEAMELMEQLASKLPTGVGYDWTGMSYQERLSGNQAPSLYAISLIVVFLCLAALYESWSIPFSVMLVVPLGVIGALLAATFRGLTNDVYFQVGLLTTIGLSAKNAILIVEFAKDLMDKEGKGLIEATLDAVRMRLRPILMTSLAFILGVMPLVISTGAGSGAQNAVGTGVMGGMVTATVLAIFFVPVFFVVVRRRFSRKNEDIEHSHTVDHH
# Excerpt: fluorescence polarization titration of R6G with AcrB SMALP on AcrB | measure the Kd value of rhodamine 6G binding.
# [2] = target: Escherichia coli multidrug transporter AcrB bearing a C-terminal octahistidine tag, in SMA lipid particles (SMALPs) (Escherichia coli) (UniProt P31224); assay: AUC; protomers to trimer; sedimentation velocity, 0.5 mg/mL AcrB-SMALP, 50 mM Tris pH 8 with 10 mM or 500 mM NaCl, 40,000 rpm, 20 h, 4 °C, c(s) analysis
# [3] = target: Escherichia coli multidrug transporter AcrB bearing a C-terminal octahistidine tag, in SMA lipid particles (SMALPs) (Escherichia coli) (UniProt P31224); assay: negative stain electron microscopy (single particle, 3D reconstruction); protomers to trimer; AcrB SMALPs ~20 ug/mL on carbon-coated grids, 1% uranyl acetate; 6884 singlet particles; refined with C1 and with C3 symmetry
stoichiometry N [2],stoichiometry N [3],Compound,Kd [1]
–,–,CCN=c1cc2oc3cc(NCC)c(C)cc3c(-c3ccccc3C(=O)OCC)c-2cc1C [rhodamine 6G],52 ± 6.6 nM
3,3,"Escherichia coli multidrug transporter AcrB bearing a C-terminal octahistidine tag, in SMA lipid particles (SMALPs) (from UniProt P31224 1-1049) (natural protein)",–
